Measurements published in patent US20090233318A1 (RECEPTOR LOGIC, published 2009).

Biological target: T1, activated soluble HLA-A*0201 (PolyTest) (human)
T1 construct: also called sHLA
Experiment: fluorescence polarization competition against 2.2 nM standard FITC-labeled peptide P5(A*0201), 40.5 µg/ml sHLA A*0201VLDL (2507)

| logIC50(nM) | Binder |
| --- | --- |
| 3.27 log10 of nM | TMTRVLQGV (Synthetic peptide; also called TMT(40)) [TMT peptide, TMTRVLQGV (hCGβ 40-48)] |
| 2.96 log10 of nM | VLQGVLPAL (Synthetic peptide; also called VLQ(44)) [VLQ peptide, VLQGVLPAL (hCGβ 44-52)] |
| 2.97 log10 of nM | GVLPALPQV (Synthetic peptide; also called GVL(47)) [GVL peptide, GVLPALPQV (hCGβ 47-55)] |
